From patent publication US20060228349A1 (published 2006)

Assays:
[1] = molecular target: T1, Aβ1-12 peptide; test: competition dot blot with peptides
T1 peptide: DAEFRHDSGYEV

[2] = molecular target: T2, Aβ12-28 peptide; test: competition dot blot with peptides
T2 peptide: VHHQKLVFFAEDVGSNK

[3] = molecular target: T3, biotin-Aβ1-20 (biotin (position not given)); test: BIACORE, biotin-Aβ1-20 as antigen; column IgG1#1
T3 peptide: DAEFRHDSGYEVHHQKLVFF

[4] = molecular target: T4, Aβ-derived diffusible ligands (synthetic ADDLs), soluble oligomers of amyloid β1-42; test: solution equilibrium titration, free IgG by ELISA, GraFit; SE 0.09
T4 construct: Oligomeric preparation of synthetic Aβ1-42 in DMSO/F12 (monomer, trimer, tetramer, 12-24mer on SDS-PAGE); number of copies not fixed; also called soluble Aβ oligomers

[5] = molecular target: T5, ADDL fibril preparation (Aβ1-42 fibrils); test: solution equilibrium titration, free IgG by ELISA, GraFit; SE 0.47
T5 construct: Fibrillar assembly; number of copies not fixed

[6] = molecular target: T6, amyloid beta (1-40) peptide; test: solution equilibrium titration, free IgG by ELISA, GraFit; SE 5.05
T6 construct: Used as monomer-like control; also called Aβ1-40; monomer preparation

[7] = molecular target: T7, Aβ1-20 peptide; test: solution equilibrium titration, free IgG by ELISA, GraFit; SE 24.41
T7 peptide: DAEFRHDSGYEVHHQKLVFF

[8] = molecular target: T8, Biotinylated ADDL preparations (bADDLs) (N-terminal biotin); test: BIACORE, bADDL as antigen; column IgG1#1 (row shifted one column to the left)
T8 construct: Oligomer, number of copies not fixed; also called biotinylated ADDL antigen; high molecular weight 10% bADDL

B1: murine anti-ADDL monoclonal antibody 20C2 (antibody, mouse IgG1, V domains shown)
VH: QVTLKESGPGILKPSQTLSLTCSLSGFSLSTSGMGVGWFRQPSGKGLEWLAHIWWDDDKSYNPSLKSRLTISKYTSRNQVFLTITSVDTADTATYYCARRQLGLRSIDAMDYWGQGTSVTVSS
VL: DVLMTQTPLSLPVSLGDQASISCRSSQSILHSNGNTYLEWYLQKPGQSPKLLIYKVSNRFSGVPDRFSGSGSGTDFTLKISRVEAEDLGVYYCFQGSLVPLTFGAGTKLELK
notes: also called Mouse-20C2
**Q.** Does B1 bind [1]?
**A.** no binding (tested: 200 pmol peptide in 200 µL)

**Q.** Does B1 bind [2]?
**A.** no binding (tested: 200 pmol peptide in 200 µL)

**Q.** And the Kd [3]?
**A.** 3.4 nM

**Q.** What about the Kd [4] of the same binder?
**A.** 0.92 nM

**Q.** What about the Kd [5] of the same binder?
**A.** 3.62 nM

**Q.** And the Kd [6]?
**A.** 30.5 nM

**Q.** And the Kd [7]?
**A.** 71.3 nM

**Q.** What about the Kd [8] of the same binder?
**A.** 4.1 nM
